Source: US20240252628A1 (ACCELERON PHARMA, published 2024)
Values belong to the binder of their own block, whether it stands above or below them.

How the values were obtained:
[1] = biological target: T1, activin A (UniProt P08476 311-426); test: SPR (Biacore), anti-Fc capture of receptor
T1 construct: The same holds for m2-m11
T1 sequence (looked up): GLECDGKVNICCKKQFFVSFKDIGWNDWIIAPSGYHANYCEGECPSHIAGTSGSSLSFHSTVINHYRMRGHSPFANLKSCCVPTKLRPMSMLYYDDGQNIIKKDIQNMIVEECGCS
Method: (§1) A Biacore™-based binding assay was used to compare ligand binding selectivity of the ActRIIB-Fc:ALK4-Fc heterodimeric complex described above with that of ActRIIB-Fc and ALK4-Fc homodimer complexes. The ActRIIB-Fc:ALK4-Fc heterodimer, ActRIIB-Fc homodimer, and ALK4-Fc homodimer were independently captured onto the system using an anti-Fc antibody. Ligands were injected and allowed to flow over the captured receptor protein. Results are summarized in the table below, in which ligand off-rates (kd) most indicative of effective ligand traps are denoted in bold.

[2] = biological target: T2, activin B (UniProt P09529 293-407); test: SPR (Biacore), anti-Fc capture of receptor
T2 sequence (looked up): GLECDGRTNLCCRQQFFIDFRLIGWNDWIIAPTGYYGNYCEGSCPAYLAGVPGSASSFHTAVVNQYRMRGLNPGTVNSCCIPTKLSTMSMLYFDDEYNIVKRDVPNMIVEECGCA
Method: as §1

[3] = biological target: T3, ActRIIA-mFc (human, UniProt P27037 21-135); test: similar binding assay (SPR)
T3 construct: not shown: minimal linker and mouse Fc domain
T3 sequence (P27037 21-135): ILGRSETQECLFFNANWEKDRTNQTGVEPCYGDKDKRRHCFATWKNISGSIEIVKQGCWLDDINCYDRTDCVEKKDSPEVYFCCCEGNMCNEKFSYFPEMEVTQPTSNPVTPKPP
Method: (§2) GDF11 or activin A were immobilized on a Biacore™ CM5 chip using standard amine-coupling procedure. ActRIIA-hFc and ActRIIA-mFc proteins were loaded onto the system, and binding was measured. […] See FIG. 15A-B. Using a similar binding assay, ActRIIA-hFc was determined to have high to moderate affinity for other TGF-beta superfamily ligands including, for example, activin B, GDF8, BMP6, and BMP10. ActRIIA-mFc behaved similarly.

[4] = biological target: T3, ActRIIA-mFc; test: SPR (Biacore), ligand amine-coupled on CM5 chip
Method: as §2

- Kd [1]: 20 nM
- koff [1]: 0.012 s⁻¹
- kon [1]: 580000 M⁻¹ s⁻¹
- binding result [2]: no binding
B1: ALK4-Fc homodimer (Fc fusion, not shown: a dimerising Fc or GST)
chain: SGPRGVQALLCACTSCLQANYTCETDGACMVSIFNLDGMEHHVRTCIPKVELVPAGKPFYCLSSEDLRNTHCCYTDYCNRIDLRVPSGHLKEPEHPSMWGPVE

- binding result [3]: binds
B2: BMP10 (ligand, UniProt O95393 317-424, looked up)
chain: NAKGNYCKRTPLYIDFKEIGWDSWIIAPPGYEAYECRGVCNYPLAEHLTPTKHAIIQALVHLKNSQKASKACCVPTKLEPISILYLDKGVVTYKFKYEGMAVSECGCR

- binding result [4]: binds
B3: GDF11 (ligand, UniProt O95390 299-407, looked up)
chain: NLGLDCDEHSSESRCCRYPLTVDFEAFGWDWIIAPKRYKANYCSGQCEYMFMQKYPHTHLVQQANPRGSAGPCCTPTKMSPINMLYFNDKQQIIYGKIPGMVVDRCGCS
notes: also called BMP11
